Assay results from patent US20080249606A1.

Biological target: endostatin incubated overnight with DXS500k (human) (UniProt P39060)
Experiment: ELISA, protein/DXS500k mixture immobilized on Greiner Microlon plate, tPA in 10 mM εACA, detection with antibody 374b

Sequence of endostatin incubated overnight with DXS500k (human) (P39060 1572-1754): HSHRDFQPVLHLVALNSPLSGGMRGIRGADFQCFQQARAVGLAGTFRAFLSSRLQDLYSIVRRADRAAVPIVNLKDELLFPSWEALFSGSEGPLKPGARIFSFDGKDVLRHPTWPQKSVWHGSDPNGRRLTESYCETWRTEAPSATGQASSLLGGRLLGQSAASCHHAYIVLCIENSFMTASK
Sequence of tissue-type plasminogen activator (tPA, Actilyse, Boehringer-Ingelheim) (P00750 36-562 limits assumed): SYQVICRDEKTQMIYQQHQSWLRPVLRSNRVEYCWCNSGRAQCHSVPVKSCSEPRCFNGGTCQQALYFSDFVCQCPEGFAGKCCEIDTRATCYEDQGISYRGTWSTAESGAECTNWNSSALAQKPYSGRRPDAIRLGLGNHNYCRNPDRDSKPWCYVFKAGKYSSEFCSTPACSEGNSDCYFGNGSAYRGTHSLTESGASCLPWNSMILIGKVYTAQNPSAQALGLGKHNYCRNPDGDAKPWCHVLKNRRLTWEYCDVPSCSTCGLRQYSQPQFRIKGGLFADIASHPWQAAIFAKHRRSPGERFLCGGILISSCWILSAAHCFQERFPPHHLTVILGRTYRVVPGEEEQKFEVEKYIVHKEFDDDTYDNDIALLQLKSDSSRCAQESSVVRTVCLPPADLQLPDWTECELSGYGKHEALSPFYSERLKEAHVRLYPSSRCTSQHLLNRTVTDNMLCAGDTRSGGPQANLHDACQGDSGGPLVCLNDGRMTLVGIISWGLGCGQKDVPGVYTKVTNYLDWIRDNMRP

tissue-type plasminogen activator (tPA, Actilyse, Boehringer-Ingelheim) (from UniProt P00750 36-562) (enzyme)
factor of increase of tPA binding against the protein incubated with buffer only: 10.5 fold
